In article PMC3592575:

Molecular target: α-synuclein (α-syn) (UniProt P37840)
Assay: self-assembly into fibrils: ThT, monomer filtration, TEM
Conditions: reference: unphosphorylated WT α-syn (semisynthetic and recombinant); sites Y125

α-synuclein (α-syn) (from UniProt P37840) semisynthetic pY125 α-syn
binding against the reference: same
